From PMC3120127

What was measured:
Test in all cases: split reporter
[1] = target: N-FLUC-PFE1350c (amino acids 9-135) (P. falciparum)
[2] = target: N-FLUC negative control (firefly)
[3] = target: N-FLUC-PfMyb2 fragment #13 (P. falciparum)

Substance | fold luciferase signal over the N-FLUC fusion plus the C-FLUC negative control [1] [fold] | fold luciferase signal over N-FLUC-PFE1350c plus the C-FLUC negative control [2] [fold] | fold luciferase signal over N-FLUC-PFE1350c plus the C-FLUC negative control [1] [fold] | fold luciferase signal over the N-FLUC fusion plus the C-FLUC negative control [3] [fold]
PFC0255c-C-FLUC (amino acids 4-137) (domain or fragment) | > 600 | < 2.3 |  | 
PFC0365w-C-FLUC (amino acids 45-205) (domain or fragment) |  |  | < 2.3 | 36
PFL1705w-C-FLUC (amino acids 95-213) (domain or fragment) |  |  | < 2.3 | 
